As a reminder, the IC50 is the concentration at which inhibition is half-maximal.

Non-standard residues stand in square brackets, D forms with d. No end group written: not given here. Hyp = O=C(O)[C@@H]1C[C@@H](O)CN1

The target of the assay is DPP-4 (UniProt P27487). Briefly: other, DPP-4 inhibition.
Sequence of DPP-4 (P27487 29-766): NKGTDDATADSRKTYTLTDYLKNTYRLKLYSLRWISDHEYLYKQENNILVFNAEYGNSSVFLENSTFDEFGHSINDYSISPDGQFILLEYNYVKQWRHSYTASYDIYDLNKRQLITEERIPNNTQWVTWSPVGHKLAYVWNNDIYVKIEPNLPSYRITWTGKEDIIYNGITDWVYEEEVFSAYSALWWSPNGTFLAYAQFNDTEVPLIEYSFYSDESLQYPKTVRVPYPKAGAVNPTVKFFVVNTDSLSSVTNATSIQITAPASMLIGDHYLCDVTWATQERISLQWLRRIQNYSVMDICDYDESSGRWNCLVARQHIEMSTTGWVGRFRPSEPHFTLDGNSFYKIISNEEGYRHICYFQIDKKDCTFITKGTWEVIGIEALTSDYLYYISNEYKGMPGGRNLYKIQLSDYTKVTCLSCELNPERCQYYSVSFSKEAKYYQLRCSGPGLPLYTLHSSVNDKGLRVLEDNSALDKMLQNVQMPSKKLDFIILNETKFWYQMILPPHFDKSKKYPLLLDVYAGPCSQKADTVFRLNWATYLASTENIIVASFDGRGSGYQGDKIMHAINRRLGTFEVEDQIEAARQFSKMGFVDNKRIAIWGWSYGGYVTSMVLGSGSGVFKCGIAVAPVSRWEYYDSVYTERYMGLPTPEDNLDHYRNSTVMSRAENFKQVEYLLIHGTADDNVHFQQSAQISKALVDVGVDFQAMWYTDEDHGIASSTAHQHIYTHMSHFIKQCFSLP
GPS [GlyProSer] registered an IC50 of 142 µg/mL. Ala-[Hyp]-Gly [AlaHypGly] displayed a half-inhibitory concentration (IC50) of 2450 µg/mL.

The molecule APG [AlaProGly] showed a 50% inhibitory concentration (IC50) of 8 µg/mL. Under GPIGPV [GlyProIleGlyProVal] stands 5 µg/mL.

For the molecule LPG [LeuProGly], it took 14 µg/mL to reach half-maximal inhibition (IC50). With Ile-[Hyp]-Gly [IleHypGly], 150 µg/mL corresponded to half-maximal inhibition (IC50). This IC50 lies about 11-fold higher than the previous one. Molecule GPA [GlyProAla] registered an IC50 of 71 µg/mL. Take Leu-[Hyp]-Gly [LeuHypGly]: the IC50 was 39 µg/mL. In turn, GPQ [GlyProGln] showed an IC50 of 93 µg/mL.

Regarding L[Hyp]GPA [LeuHypGlyProAla], the half-inhibitory concentration (IC50) was found to be 390 µg/mL. The molecule GPV [GlyProVal] yielded an IC50 of 100 µg/mL.

The values above are taken from patent US9486491 (dated 2016).
